We go through one substance from PMC2213610.

In this assay the target is VASP, endogenous in human endothelial cells (human (endogenous in EA.hy926 and ECV304)) (UniProt P50552). In words: co-IP.
VASP, endogenous in human endothelial cells (human (endogenous in EA.hy926 and ECV304)), sequence (P50552 whole entry): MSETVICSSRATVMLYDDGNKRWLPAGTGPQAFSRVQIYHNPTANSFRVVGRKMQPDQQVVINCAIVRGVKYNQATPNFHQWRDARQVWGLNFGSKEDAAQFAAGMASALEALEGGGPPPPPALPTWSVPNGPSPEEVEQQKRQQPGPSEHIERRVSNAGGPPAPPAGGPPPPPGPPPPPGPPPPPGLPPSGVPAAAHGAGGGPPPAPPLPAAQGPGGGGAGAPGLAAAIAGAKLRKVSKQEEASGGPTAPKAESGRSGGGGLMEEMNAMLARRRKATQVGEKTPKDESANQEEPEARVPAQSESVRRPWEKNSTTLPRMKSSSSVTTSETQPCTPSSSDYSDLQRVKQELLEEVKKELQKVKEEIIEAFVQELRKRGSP

“αII-spectrin (SPCN), endogenous in human endothelial cells, Q13813 1-2472” had a percent of cellular SPCN coprecipitated greater than 70%.
